Source: article doi:10.1101/2024.09.16.613172

How the values were obtained:
Assay in all cases: ITC
[1] = molecular target: MHETase-CelF (not stated | Clostridium cellulolyticum) (UniProt P37698)
[2] = molecular target: FAST-PETase-CelK (not stated | Clostridium thermocellum)
[3] = molecular target: SH3L-optiMHETase
[4] = molecular target: ICCG-ScaA (not stated | Ruminococcus flavefaciens)

Row | Kd [1] | Kd [2] | Kd [3] | Kd [4] | Substance
1 | 1000 nM | 19.1 nM |  |  | CipA-CBM-CipC (Scaf.2)
2 |  |  | 12.6 nM |  | CipA-CBM-SH3D (Scaf.3)
3 |  | 6.44 nM | 3.53 nM | 5.25 nM | CipA-CBM-SH3D-ScaB (Scaf.4)
